Experimental data as given in the supplement of paper PMC12338614.
± gives the uncertainty stated by the source.

B1: library; numbered along this chain (parent)
chain: MEVVDPQQLGMFTEGELMSVGMDTFIHRIDSTEVIYQPRRKRAKLIGKYLMGDLLGEGSYGKVKEVLDSETLCRRAVKILKKKKLRRIPNGEANVKKEIQLLRRLRHKNVIQLVDVLYNEEKQKMYMVMEYCVCGMQEMLDSVPEKRFPVCQAHGYFCQLIDGLEYLHSQGIVHKDIKPGNLLLTTGGTLKISDLGVAEALHPFAADDTCRTSQGSPAFQPPEIANGLDTFSGFKVDIWSAGVTLYNITTGLYPFEGDNIYKLFENIGKGSYAIPGDCGPPLSDLLKGMLEYEPAKRFSIRQIRQHSWFRKKHPPAEAPVPIPPSPDTKDRWRSMTVVPYLEDLHGADEDEDLFDIEDDIIYTQDFTVPGQVPEEEASHNGQRRGLPKAVCMNGTEAAQLSTKSRAEGRAPNPARKACSASSKIRRLSACKQQ

Variants of: B1
Test: STK11 functional score (HeLa growth suppression), rescaled enrichment; synonymous median = 1, nonsense median = 0 (normalised score)
Details: with HeLa; variant type: missense
Experimental: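 Deep mutational scan (TileSeq/POPCode codon randomisation) of full-length codon-optimised STK11 cDNA integrated at a Bxb1 landing pad (AAVS1) in HeLa cells. Restoring functional STK11 suppresses HeLa proliferation. Variant frequencies were measured by NGS before and after about two weeks of growth. The error-corrected enrichment log-ratio was rescaled so that synonymous median = 1 and nonsense median = 0, scores above 1 were compressed, and codon-level and three biological replicate scores were combined; error is the bootstrapped standard error. Scale: synonymous median = 1, nonsense median = 0; below 0.5 = damaging.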

Point of comparison: MEVVDPQQLGMFTEGELMSVGMDTFIHRIDSTEVIYQPRRKRAKLIGKYLMGDLLGEGSYGKVKEVLDSETLCRRAVKILKKKKLRRIPNGEANVKKEIQLLRRLRHKNVIQLVDVLYNEEKQKMYMVMEYCVCGMQEMLDSVPEKRFPVCQAHGYFCQLIDGLEYLHSQGIVHKDIKPGNLLLTTGGTLKISDLGVAEALHPFAADDTCRTSQGSPAFQPPEIANGLDTFSGFKVDIWSAGVTLYNITTGLYPFEGDNIYKLFENIGKGSYAIPGDCGPPLSDLLKGMLEYEPAKRFSIRQIRQHSWFRKKHPPAEAPVPIPPSPDTKDRWRSMTVVPYLEDLHGADEDEDLFDIEDDIIYTQDFTVPGQVPEEEASHNGQRRGLCKAVCMNGTEAAQLSTKSRAEGRAPNPARKACSASSKIRRLSACKQQ [P387C], STK11 functional score 1.54 ± 0.24. Against it:
- MEVVDPQQLGMFTEGELMSVGMDTFIHRIDSTEVIYQPRRKRAKLIGKYLMGDLLGEGSYGKVKEVLDSETLCRRAVKILKKKKLRRIPNGEANVKKEIQLLRRLRHKNVIQLVDVLYNEEKQKMYMVMEYCVCGMQEMLDSVPEKRFPVCQAHGYFCQLIDGLEYLHSQGIVHKDIKPGNLLLTTGGTLKISDLGVAEALHPFAADDTCRTSQGSPAFQPPEIANGLDTFSGFKVDIWSAGVTLYNITTGLYPFEGDNIYKLFENIGKGSYAIPGDCGPPLSDLLKGMLEYEPAKRYSIRQIRQHSWFRKKHPPAEAPVPIPPSPDTKDRWRSMTVVPYLEDLHGADEDEDLFDIEDDIIYTQDFTVPGQVPEEEASHNGQRRGLPKAVCMNGTEAAQLSTKSRAEGRAPNPARKACSASSKIRRLSACKQQ [F298Y] — within error, 0.754 ± 0.77
- MEVVDPQQLGMFTEGELMSVGMDTFIHRIDSTEVIYQPRRKRAKLIGKYLMGDLLGEGSYGKVKEVLDSETLCRRAVKILKKKKLRRIPNGEANVKKKIQLLRRLRHKNVIQLVDVLYNEEKQKMYMVMEYCVCGMQEMLDSVPEKRFPVCQAHGYFCQLIDGLEYLHSQGIVHKDIKPGNLLLTTGGTLKISDLGVAEALHPFAADDTCRTSQGSPAFQPPEIANGLDTFSGFKVDIWSAGVTLYNITTGLYPFEGDNIYKLFENIGKGSYAIPGDCGPPLSDLLKGMLEYEPAKRFSIRQIRQHSWFRKKHPPAEAPVPIPPSPDTKDRWRSMTVVPYLEDLHGADEDEDLFDIEDDIIYTQDFTVPGQVPEEEASHNGQRRGLPKAVCMNGTEAAQLSTKSRAEGRAPNPARKACSASSKIRRLSACKQQ [E98K] — within error, 1.12 ± 0.67
- MEVVDPQQLGMFTEGELMSVGMDTFIHRIDSTEVIYQPRRKRAKLIGKYLMGDLLGEGSYGKVKEVLDSETLCRRAVKILKKKKLRRIPNGEANVKKEIQLLRRLRHKNVIQLVDVLYNEEKQKMYMVMEYCVCGMQEMLDSVPEKRFPVCQAHGYFCQLIDGLEYLHSQGIVHKDIKPGNLLLTTGGTLKISDLGVAEALHPFAADDTCRTSQGSPAFQPPEIANGLDTFSGFKVDIWSAGVTLYNITTGLYPFEGDNIYKLFENIGKGSYAIPGDCGPPLSDLLKGMLEYEPAKRFSIRQIRQHSWFRKKHPPAEAPVPIPPSPDTKDRWRSMTVVPYLYDLHGADEDEDLFDIEDDIIYTQDFTVPGQVPEEEASHNGQRRGLPKAVCMNGTEAAQLSTKSRAEGRAPNPARKACSASSKIRRLSACKQQ [E342Y] — within error, 1.38 ± 0.12
- MEVVDPQQLGMFTEGELMSVGMDTFIHRIDSTEVIYQPRRKRAKLIGKYLMGDLLGEGSYGKVKEVLDSETLCRRAVKILKKKKLRRIPNGEANVKKEIQLLRRLRHKNVIQLVDVLYNEEKQKMYMVMEYCVCGMQEMLDSVPEKRFPVCQAHGYFCQLIDGLEYLHSQGIVHKDIKPGNLLLTTGGTLKISDLGVAEALHPFAADDTCRTSQGSPAFQPPEIANGLDTFSGLKVDIWSAGVTLYNITTGLYPFEGDNIYKLFENIGKGSYAIPGDCGPPLSDLLKGMLEYEPAKRFSIRQIRQHSWFRKKHPPAEAPVPIPPSPDTKDRWRSMTVVPYLEDLHGADEDEDLFDIEDDIIYTQDFTVPGQVPEEEASHNGQRRGLPKAVCMNGTEAAQLSTKSRAEGRAPNPARKACSASSKIRRLSACKQQ [F234L] — lower, 0.75 ± 0.11
- MEVVDPQQLGMFTEGELMSVGMDTFIHRIDSTEVIYQPRRKRAKLIGKYLMGDLLGEGSYGKVKEVLDSETLCRRAVKILKKKKLRRIPNGEANVKKEIQLLRRLRHKNVIQLVDVLYNEEKQKMYMVMEYCVCGMQEMLDSVPEKRFPVCQAHGYFCQLIDGLEYLHSQGIVHKDIKPGNLLLTTGGTLKISDLGVAEALHPFAADDTCRTSQGSPAFQPPEIANGLDTFSGFKVDIWSAGVTLYNITTGLYPFEGDNIYKLFENIGKGSYAIPGDCGPPLSDLLKGMLEYEPAKRFSIRQIRQHSWFRKKHPPAEAPVPIPPSPDTKDRWRSMTVVPYLEDLHGADEDEDLFDIEDDIIYTQDFTVPGQVPEEEASHNGQRRGHPKAVCMNGTEAAQLSTKSRAEGRAPNPARKACSASSKIRRLSACKQQ [L386H] — lower, 0.959 ± 0.14
- MEVVDPQQLGMFTEGELMSVGMDTFIHRIDSTEVIYQPRRKRAKLIGKYLMGDLLGEGSYGKVKEVLDSETLCRRAVKILKKKKLRRIPNGEANVKKEIQLLRRLRHKNVIQLVDVLYNEEKQKMYMVMEYCVCGMQEMLDSVPEKRFPVCQAHGYFCQLIDGLEYLHSQGIVHKDIKPGNLLLTTGGGLKISDLGVAEALHPFAADDTCRTSQGSPAFQPPEIANGLDTFSGFKVDIWSAGVTLYNITTGLYPFEGDNIYKLFENIGKGSYAIPGDCGPPLSDLLKGMLEYEPAKRFSIRQIRQHSWFRKKHPPAEAPVPIPPSPDTKDRWRSMTVVPYLEDLHGADEDEDLFDIEDDIIYTQDFTVPGQVPEEEASHNGQRRGLPKAVCMNGTEAAQLSTKSRAEGRAPNPARKACSASSKIRRLSACKQQ [T189G] — within error, 0.924 ± 0.71
